Results reported in PMC12003865 (Scientific Reports, 2025).

Molecular target: the molecule itself
Test: co-sedimentation

B1: apoA-IV 1‒70/K58E variant (domain or fragment, human)
chain: GPEVSADQVATVMWDYFSQLSNNAKEAVEHLQKSELTQQLNALFQDKLGEVNTYAGDLQEKLVPFATELHER
B1: binds.
